The text below walks through data of patent US20080267985A1.

Assay [1] concerns the target IgE antibodies from sera of grass pollen allergy sufferers (human). Put plainly: cell-based or functional assay.
For assay [2] the target is unchanged. Put plainly: EAST inhibition test, four individual sera, plate-bound nPhl p 1, inhibitor up to 5 µg/ml.

B1: Phl p 1 NoCys Δ1-6, 115-119, 213-220 (histidine fusion protein) (protein, not shown: small tags and cut ends)
chain: GPNITATYGDKWLDAKSTWYGKPTAAGPKDNGGASGYKDVDKPPFSGMTGSGNTPIFKSGRGSGSSFEIKSTKPEASSGEPVVVHITDDNEEPIAAYHFDLSGIAFGSDEQKLRSAGEVEIQFRRVKSKYPEGTKVTFHVEKGSNPNYLALLVKFVAGDGDVVAVDIKEKGKDKWIALKESWGAIWRIDTPEVLKGPFTVRGEAKDVIPEGWKADTAYESK
Regarding B1, in assay [1], the allergenic efficacy from A50 values, basophil activation test (CD203c), against reference nPhl p 1 was > 1000 fold.

B2: Phl p 1 NoCys (histidine fusion protein) (protein, not shown: small tags and cut ends)
chain: IPKVPPGPNITATYGDKWLDAKSTWYGKPTAAGPKDNGGASGYKDVDKPPFSGMTGSGNTPIFKSGRGSGSSFEIKSTKPEASSGEPVVVHITDDNEEPIAAYHFDLSGIAFGSMAKKGDEQKLRSAGEVEIQFRRVKSKYPEGTKVTFHVEKGSNPNYLALLVKFVAGDGDVVAVDIKEKGKDKWIALKESWGAIWRIDTPEVLKGPFTVRYTTEGGTKGEAKDVIPEGWKADTAYESK
B2 displayed a percent of the maximum inhibitory action of nPhl p 1 in assay [2] of 20 to 50%.

B3: Phl p 1 NoCys Δ213-220 (histidine fusion protein) (protein, not shown: small tags and cut ends)
chain: IPKVPPGPNITATYGDKWLDAKSTWYGKPTAAGPKDNGGASGYKDVDKPPFSGMTGSGNTPIFKSGRGSGSSFEIKSTKPEASSGEPVVVHITDDNEEPIAAYHFDLSGIAFGSMAKKGDEQKLRSAGEVEIQFRRVKSKYPEGTKVTFHVEKGSNPNYLALLVKFVAGDGDVVAVDIKEKGKDKWIALKESWGAIWRIDTPEVLKGPFTVRGEAKDVIPEGWKADTAYESK
With B3, the allergenic efficacy from A50 values, basophil activation test (CD203c), against reference nPhl p 1 in assay [1] is 100 to 1000 fold.
